# Results from US20200291066A1.
# Where two headings read alike, the source gives them in different places. Ends that are not written are not given here.
# B1: SEQ ID NO 489 (peptide)
# peptide: PGVQDCXIAHXGELCEFVWN
# modifications: not fully specified; X: residue not identified in the source; ends and bridges not checked
# Experiments:
# [1] = target: T1, human IL-2Rβ (CD122 protein, Fc Tag) (27-239) (human), P14784; test: pH-dependent ELISA (Examples 9-12)
# T1 chain: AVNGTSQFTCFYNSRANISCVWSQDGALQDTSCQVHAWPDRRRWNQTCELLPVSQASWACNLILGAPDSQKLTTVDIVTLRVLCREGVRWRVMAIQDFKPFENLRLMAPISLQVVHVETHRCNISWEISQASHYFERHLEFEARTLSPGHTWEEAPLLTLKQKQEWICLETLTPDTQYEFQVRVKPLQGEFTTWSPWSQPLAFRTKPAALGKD
# [2] = target: T1, human IL-2Rβ (CD122 protein, Fc Tag) …; test: pH-dependent ELISA (Examples 9-12)
binder,measurement,setting,value
B1,decrease in binding at pH 7.5 compared to pH 6.0,[1],> 50%
same,decrease in binding at pH 7.5 compared to pH 6.0,[2],> 15%
